Results taken from IntAct's records for PubMed 31515488.

B1: Multifunctional procollagen lysine hydroxylase and glycosyltransferase LH3 (Homo sapiens), O60568 (parent)
chain: MTSSGPGPRFLLLLPLLLPPAASASDRPRGRDPVNPEKLLVITVATAETEGYLRFLRSAEFFNYTVRTLGLGEEWRGGDVARTVGGGQKVRWLKKEMEKYADREDMIIMFVDSYDVILAGSPTELLKKFVQSGSRLLFSAESFCWPEWGLAEQYPEVGTGKRFLNSGGFIGFATTIHQIVRQWKYKDDDDDQLFYTRLYLDPGLREKLSLNLDHKSRIFQNLNGALDEVVLKFDRNRVRIRNVAYDTLPIVVHGNGPTKLQLNYLGNYVPNGWTPEGGCGFCNQDRRTLPGGQPPPRVFLAVFVEQPTPFLPRFLQRLLLLDYPPDRVTLFLHNNEVFHEPHIADSWPQLQDHFSAVKLVGPEEALSPGEARDMAMDLCRQDPECEFYFSLDADAVLTNLQTLRILIEENRKVIAPMLSRHGKLWSNFWGALSPDEYYARSEDYVELVQRKRVGVWNVPYISQAYVIRGDTLRMELPQRDVFSGSDTDPDMAFCKSFRDKGIFLHLSNQHEFGRLLATSRYDTEHLHPDLWQIFDNPVDWKEQYIHENYSRALEGEGIVEQPCPDVYWFPLLSEQMCDELVAEMEHYGQWSGGRHEDSRLAGGYENVPTVDIHMKQVGYEDQWLQLLRTYVGPMTESLFPGYHTKARAVMNFVVRYRPDEQPSLRPHHDSSTFTLNVALNHKGLDYEGGGCRFLRYDCVISSPRKGWALLHPGRLTHYHEGLPTTWGTRYIMVSFVDP
partner: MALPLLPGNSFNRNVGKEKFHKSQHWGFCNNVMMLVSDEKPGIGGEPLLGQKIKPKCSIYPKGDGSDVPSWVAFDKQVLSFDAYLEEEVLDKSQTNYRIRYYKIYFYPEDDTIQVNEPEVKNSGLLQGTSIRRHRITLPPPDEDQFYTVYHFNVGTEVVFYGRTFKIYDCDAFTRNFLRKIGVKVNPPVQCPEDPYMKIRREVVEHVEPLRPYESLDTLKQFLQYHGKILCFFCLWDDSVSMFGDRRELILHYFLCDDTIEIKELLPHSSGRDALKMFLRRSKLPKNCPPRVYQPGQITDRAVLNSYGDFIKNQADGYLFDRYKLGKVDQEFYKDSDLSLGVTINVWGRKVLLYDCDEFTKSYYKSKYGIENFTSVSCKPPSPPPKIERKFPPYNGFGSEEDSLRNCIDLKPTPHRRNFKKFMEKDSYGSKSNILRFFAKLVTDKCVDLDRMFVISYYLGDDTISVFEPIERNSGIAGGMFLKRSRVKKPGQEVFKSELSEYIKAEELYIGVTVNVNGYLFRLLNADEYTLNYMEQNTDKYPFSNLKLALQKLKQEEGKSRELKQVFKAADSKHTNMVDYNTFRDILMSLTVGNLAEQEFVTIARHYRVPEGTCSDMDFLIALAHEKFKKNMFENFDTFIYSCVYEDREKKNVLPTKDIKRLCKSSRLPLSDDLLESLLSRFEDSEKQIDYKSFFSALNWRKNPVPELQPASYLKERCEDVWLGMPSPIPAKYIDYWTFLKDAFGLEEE
B2: Zinc finger protein 165 (Homo sapiens), P49910 (parent)
chain: MATEPKKAAAQNSPEDEGLLIVKIEEEEFIHGQDTCLQRSELLKQELCRQLFRQFCYQDSPGPREALSRLRELCCQWLKPEIHTKEQILELLVLEQFLTILPGDLQAWVHEHYPESGEEAVTILEDLERGTDEAVLQVQAHEHGQEIFQKKVSPPGPALNVKLQPVETKAHFDSSEPQLLWDCDNESENSRSMPKLEIFEKIESQRIISGRISGYISEASGESQDICKSAGRVKRQWEKESGESQRLSSAQDEGFGKILTHKNTVRGEIISHDGCERRLNLNSNEFTHQKSCKHGTCDQSFKWNSDFINHQIIYAGEKNHQYGKSFKSPKLAKHAAVFSGDKTHQCNECGKAFRHSSKLARHQRIHTGERCYECNECGKSFAESSDLTRHRRIHTGERPFGCKECGRAFNLNSHLIRHQRIHTREKPYECSECGKTFRVSSHLIRHFRIHTGEKPYECSECGRAFSQSSNLSQHQRIHMRENLLM
partner: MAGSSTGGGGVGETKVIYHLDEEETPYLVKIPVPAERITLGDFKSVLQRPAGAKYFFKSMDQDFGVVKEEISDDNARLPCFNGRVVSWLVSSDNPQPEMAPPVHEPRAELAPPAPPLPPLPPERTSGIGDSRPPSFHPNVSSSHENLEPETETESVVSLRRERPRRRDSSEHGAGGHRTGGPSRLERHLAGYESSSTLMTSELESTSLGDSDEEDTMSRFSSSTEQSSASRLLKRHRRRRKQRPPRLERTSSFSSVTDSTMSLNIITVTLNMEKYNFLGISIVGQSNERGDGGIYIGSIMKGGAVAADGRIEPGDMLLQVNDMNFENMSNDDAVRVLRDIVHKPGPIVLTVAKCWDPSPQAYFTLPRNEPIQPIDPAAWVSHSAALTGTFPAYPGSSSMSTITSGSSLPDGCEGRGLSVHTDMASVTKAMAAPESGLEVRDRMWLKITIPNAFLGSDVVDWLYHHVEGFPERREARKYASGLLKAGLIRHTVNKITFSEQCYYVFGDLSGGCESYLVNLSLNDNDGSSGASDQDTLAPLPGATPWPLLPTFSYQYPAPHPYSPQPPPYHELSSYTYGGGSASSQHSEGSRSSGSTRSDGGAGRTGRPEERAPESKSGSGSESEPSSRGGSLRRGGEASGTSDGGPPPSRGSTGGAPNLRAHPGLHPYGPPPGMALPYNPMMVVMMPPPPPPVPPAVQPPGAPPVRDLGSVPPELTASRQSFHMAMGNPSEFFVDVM
B3: Myogenin (Homo sapiens), P15173 (parent)
chain: MELYETSPYFYQEPRFYDGENYLPVHLQGFEPPGYERTELTLSPEAPGPLEDKGLGTPEHCPGQCLPWACKVCKRKSVSVDRRRAATLREKRRLKKVNEAFEALKRSTLLNPNQRLPKVEILRSAIQYIERLQALLSSLNQEERDLRYRGGGGPQPGVPSECSSHSASCSPEWGSALEFSANPGDHLLTADPTDAHNLHSLTSIVDSITVEDVSVAFPDETMPN
partner: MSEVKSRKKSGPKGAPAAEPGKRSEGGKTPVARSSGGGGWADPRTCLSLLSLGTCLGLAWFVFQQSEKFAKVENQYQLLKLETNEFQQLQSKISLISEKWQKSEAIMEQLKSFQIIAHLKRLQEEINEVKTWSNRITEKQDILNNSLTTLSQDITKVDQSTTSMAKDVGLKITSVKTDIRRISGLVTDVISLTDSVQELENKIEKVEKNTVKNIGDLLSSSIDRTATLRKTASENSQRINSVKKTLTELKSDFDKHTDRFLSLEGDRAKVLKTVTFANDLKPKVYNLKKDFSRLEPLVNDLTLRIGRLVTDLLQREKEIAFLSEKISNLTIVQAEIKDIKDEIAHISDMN
B4: DNA topoisomerase 3-beta-1 (Homo sapiens), O95985 (parent)
chain: MKTVLMVAEKPSLAQSIAKILSRGSLSSHKGLNGACSVHEYTGTFAGQPVRFKMTSVCGHVMTLDFLGKYNKWDKVDPAELFSQAPTEKKEANPKLNMVKFLQVEGRGCDYIVLWLDCDKEGENICFEVLDAVLPVMNKAHGGEKTVFRARFSSITDTDICNAMACLGEPDHNEALSVDARQELDLRIGCAFTRFQTKYFQGKYGDLDSSLISFGPCQTPTLGFCVERHDKIQSFKPETYWVLQAKVNTDKDRSLLLDWDRVRVFDREIAQMFLNMTKLEKEAQVEATSRKEKAKQRPLALNTVEMLRVASSSLGMGPQHAMQTAERLYTQGYISYPRTETTHYPENFDLKGSLRQQANHPYWADTVKRLLAEGINRPRKGHDAGDHPPITPMKSATEAELGGDAWRLYEYITRHFIATVSHDCKYLQSTISFRIGPELFTCSGKTVLSPGFTEVMPWQSVPLEESLPTCQRGDAFPVGEVKMLEKQTNPPDYLTEAELITLMEKHGIGTDASIPVHINNICQRNYVTVESGRRLKPTNLGIVLVHGYYKIDAELVLPTIRSAVEKQLNLIAQGKADYRQVLGHTLDVFKRKFHYFVDSIAGMDELMEVSFSPLAATGKPLSRCGKCHRFMKYIQAKPSRLHCSHCDETYTLPQNGTIKLYKELRCPLDDFELVLWSSGSRGKSYPLCPYCYNHPPFRDMKKGMGCNECTHPSCQHSLSMLGIGQCVECESGVLVLDPTSGPKWKVACNKCNVVAHCFENAHRVRVSADTCSVCEAALLDVDFNKAKSPLPGDETQHMGCVFCDPVFQELVELKHAASCHPMHRGGPGRRQGRGRGRARRPPGKPNPRRPKDKMSALAAYFV
partner: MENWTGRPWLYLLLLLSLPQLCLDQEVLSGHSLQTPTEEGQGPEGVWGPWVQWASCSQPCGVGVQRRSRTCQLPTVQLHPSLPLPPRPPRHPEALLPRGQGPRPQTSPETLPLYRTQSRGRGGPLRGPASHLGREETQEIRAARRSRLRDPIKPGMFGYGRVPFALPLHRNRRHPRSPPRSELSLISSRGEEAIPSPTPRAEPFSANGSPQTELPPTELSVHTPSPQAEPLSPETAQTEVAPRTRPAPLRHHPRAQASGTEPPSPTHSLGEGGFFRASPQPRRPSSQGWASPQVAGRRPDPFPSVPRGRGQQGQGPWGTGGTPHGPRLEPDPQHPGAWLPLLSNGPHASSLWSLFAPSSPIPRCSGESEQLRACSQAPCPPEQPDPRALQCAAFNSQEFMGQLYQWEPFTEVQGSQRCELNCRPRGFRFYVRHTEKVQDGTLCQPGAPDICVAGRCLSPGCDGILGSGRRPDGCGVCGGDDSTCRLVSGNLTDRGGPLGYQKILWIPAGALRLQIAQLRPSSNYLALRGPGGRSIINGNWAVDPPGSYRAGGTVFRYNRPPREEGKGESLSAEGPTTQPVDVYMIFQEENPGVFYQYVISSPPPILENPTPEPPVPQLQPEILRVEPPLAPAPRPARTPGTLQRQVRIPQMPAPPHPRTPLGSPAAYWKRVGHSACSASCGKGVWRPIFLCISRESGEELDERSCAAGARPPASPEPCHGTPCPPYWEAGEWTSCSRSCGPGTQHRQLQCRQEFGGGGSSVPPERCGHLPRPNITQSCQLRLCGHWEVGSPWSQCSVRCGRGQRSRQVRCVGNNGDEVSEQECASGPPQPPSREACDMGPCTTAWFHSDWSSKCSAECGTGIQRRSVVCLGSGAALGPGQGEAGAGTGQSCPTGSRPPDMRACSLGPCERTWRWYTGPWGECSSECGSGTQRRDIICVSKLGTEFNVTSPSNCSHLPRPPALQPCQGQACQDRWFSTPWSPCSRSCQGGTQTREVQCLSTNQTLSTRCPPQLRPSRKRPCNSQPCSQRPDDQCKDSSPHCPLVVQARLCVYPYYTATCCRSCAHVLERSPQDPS
B5: PHD finger protein 1 (Homo sapiens), O43189 (parent)
chain: MAQPPRLSRSGASSLWDPASPAPTSGPRPRLWEGQDVLARWTDGLLYLGTIKKVDSAREVCLVQFEDDSQFLVLWKDISPAALPGEELLCCVCRSETVVPGNRLVSCEKCRHAYHQDCHVPRAPAPGEGEGTSWVCRQCVFAIATKRGGALKKGPYARAMLGMKLSLPYGLKGLDWDAGHLSNRQQSYCYCGGPGEWNLKMLQCRSCLQWFHEACTQCLSKPLLYGDRFYEFECCVCRGGPEKVRRLQLRWVDVAHLVLYHLSVCCKKKYFDFDREILPFTSENWDSLLLGELSDTPKGERSSRLLSALNSHKDRFISGREIKKRKCLFGLHARMPPPVEPPTGDGALTSFPSGQGPGGGVSRPLGKRRRPEPEPLRRRQKGKVEELGPPSAVRNQPEPQEQRERAHLQRALQASVSPPSPSPNQSYQGSSGYNFRPTDARCLPSSPIRMFASFHPSASTAGTSGDSGPPDRSPLELHIGFPTDIPKSAPHSMTASSSSVSSPSPGLPRRSAPPSPLCRSLSPGTGGGVRGGVGYLSRGDPVRVLARRVRPDGSVQYLVEWGGGGIF
partner: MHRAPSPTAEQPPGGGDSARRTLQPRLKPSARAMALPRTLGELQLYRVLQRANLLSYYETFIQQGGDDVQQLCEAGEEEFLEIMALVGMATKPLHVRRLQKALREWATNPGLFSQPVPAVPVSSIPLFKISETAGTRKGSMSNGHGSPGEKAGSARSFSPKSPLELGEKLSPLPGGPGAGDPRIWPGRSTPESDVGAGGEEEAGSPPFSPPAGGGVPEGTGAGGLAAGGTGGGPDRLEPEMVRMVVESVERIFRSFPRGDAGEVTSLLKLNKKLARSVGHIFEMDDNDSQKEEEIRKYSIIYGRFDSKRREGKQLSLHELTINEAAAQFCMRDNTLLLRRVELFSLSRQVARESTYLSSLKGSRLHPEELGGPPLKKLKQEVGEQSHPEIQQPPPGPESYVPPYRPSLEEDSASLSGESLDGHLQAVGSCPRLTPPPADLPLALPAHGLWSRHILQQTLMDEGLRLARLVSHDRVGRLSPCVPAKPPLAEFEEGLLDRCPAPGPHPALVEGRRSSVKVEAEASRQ

Variants of: B1
Conditions: with efhc2_human EFHC2, Q5JST6

| effect of a mutation on the interaction | Variant |
| --- | --- |
| disrupting interaction strength | A492V |

Variants of: B2
Conditions: with dvl2_human DVL2, O14641

| effect of a mutation on the interaction | Variant |
| --- | --- |
| with no effect | N347Y |
| with no effect | R69C |

Variants of: B3
Conditions: with ikip_human IKBIP

| effect of a mutation on the interaction | Variant |
| --- | --- |
| disrupting interaction strength | A181T |

Variants of: B4
Conditions: with atl4_human ADAMTSL4, Q6UY14

| effect of a mutation on the interaction | Variant |
| --- | --- |
| disrupting interaction strength | R267W |

Variants of: B5
Conditions: with nab2_human NAB2, Q15742

| effect of a mutation on the interaction | Variant |
| --- | --- |
| with no effect | S14L |
